Laboratory results from doi:10.1101/2021.04.29.441928.

How the values were obtained:
Assay in all cases: co-IP
[1] = biological target: CD4 Dbl (mouse) (UniProt P06332)
[2] = biological target: CD4 K452A (mouse) (UniProt P06332)
[3] = biological target: CD4 R426A (mouse) (UniProt P06332)
[4] = biological target: CD4 R449A (mouse) (UniProt P06332)
[5] = biological target: CD4 WT (mouse) (UniProt P06332)

Chain of Lck (P06240 whole entry): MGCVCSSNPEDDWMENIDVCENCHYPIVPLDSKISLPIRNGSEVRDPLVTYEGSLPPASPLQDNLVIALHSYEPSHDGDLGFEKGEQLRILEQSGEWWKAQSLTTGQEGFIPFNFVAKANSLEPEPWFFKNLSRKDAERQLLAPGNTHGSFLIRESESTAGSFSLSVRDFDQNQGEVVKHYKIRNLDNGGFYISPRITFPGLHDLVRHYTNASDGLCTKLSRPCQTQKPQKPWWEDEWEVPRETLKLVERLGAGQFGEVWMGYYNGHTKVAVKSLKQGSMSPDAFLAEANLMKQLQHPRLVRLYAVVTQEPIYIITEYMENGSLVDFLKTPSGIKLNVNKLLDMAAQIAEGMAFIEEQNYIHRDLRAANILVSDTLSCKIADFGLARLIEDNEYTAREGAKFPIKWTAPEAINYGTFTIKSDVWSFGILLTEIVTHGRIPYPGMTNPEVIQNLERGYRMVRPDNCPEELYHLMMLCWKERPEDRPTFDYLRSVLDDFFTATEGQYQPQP

Substance “Lck (from UniProt P06240 1-509) (enzyme)” has a total AUC of the raw Lck signal co-IP'd with CD4 [1] of 2160, a total AUC of the raw Lck signal co-IP'd with CD4 [2] of 2380 and a total AUC of the raw Lck signal co-IP'd with CD4 [3] of 2920. The total AUC of the raw Lck signal co-IP'd with CD4 [4] was 2640 and the total AUC of the raw Lck signal co-IP'd with CD4 [5] was 2630.
